Source: patent US11214614B2, “LTBP complex-specific inhibitors of TGFβ and uses thereof” (Scholar Rock, Inc., priority 2019, dated 2022)
Positions count from the first letter of the chain named.

B1: SR-AB48-HuFab (antibody, V domains shown)
VH: QVQLVESGGGVVQPGRSLRLSCAASGFTFRSYVMHWVRQAPGKGLEWVAVISHEGSGKYYADSVKGRFTISRDNSKNTLYLQMNSLRAEDTAVYYCARPRIAARRGGFGSWGQGTLVTVSS
VL: NFMLTQPHSVSESPGKTVTISCTRSSGNIDYNYVQWYQQRPGSSPTTVIYEDNVRPSGVPDRFSGSIDSSSNSASLTISGLKTEDEADYYCQSYDYDTQGVVFGGGTKLTVL
B2: SR-AB47-HuFab (antibody, V domains shown)
VH: B1 VH
VL: B1 VL with T98N, G100A
B3: SR-AB51-HuFab (antibody, V domains shown)
VH: B1 VH with S110T
VL: B1 VL with T98N, G100A
B4: SR-AB56-HuFab (antibody, V domains shown)
VH: B1 VH with R98L
VL: B1 VL
B5: SR-AB55-HuFab (antibody, V domains shown)
VH: B1 VH with R98L
VL: B1 VL with T98N, G100A
B6: SR-AB61-HuFab (antibody, V domains shown)
VH: B1 VH with R98L, S110T
VL: B1 VL with S93G, Y96W
B7: SR-AB58-HuFab (antibody, V domains shown)
VH: B1 VH with R98L, S110T
VL: B1 VL with Y96S, T98N, G100R
B8: SR-AB57-HuFab (antibody, V domains shown)
VH: B1 VH with R98L
VL: B1 VL with S93G, Y96W
B9: SR-AB60-HuFab (antibody, V domains shown)
VH: B1 VH with R98L, S110T
VL: B1 VL
B10: SR-AB52-HuFab (antibody, V domains shown)
VH: B1 VH with S110T
VL: B1 VL
B11: SR-AB53-HuFab (antibody, V domains shown)
VH: B1 VH with S110T
VL: B1 VL with S93G, Y96W
B12: SR-AB46-HuFab (antibody, V domains shown)
VH: B1 VH
VL: B1 VL with Y96S, T98N, G100R
B13: SR-AB59-HuFab (antibody, V domains shown)
VH: B1 VH with R98L, S110T
VL: B1 VL with T98N, G100A
B14: SR-AB54-HuFab (antibody, V domains shown)
VH: B1 VH with R98L
VL: B1 VL with Y96S, T98N, G100R
B15: SR-AB50-HuFab (antibody, V domains shown)
VH: B1 VH with S110T
VL: B1 VL with Y96S, T98N, G100R
B16: SR-AB49-HuFab (antibody, V domains shown)
VH: B1 VH
VL: B1 VL with S93G, Y96W
B17: LTBP-SR-AB42 HuFab (antibody, V domains shown)
VH: B1 VH with G57L, S110Y
VL: B1 VL with Y31N, V54Q

molecular target: huLTBP1 proTGFβ1 (Homo sapiens, UniProt P01137+Q14766); assay: SPR (Biacore 8K) monovalent binding kinetics of Fabs, biotinylated antigen captured; parameters: biotin (complex biotinylated); details: Fab, huLTBP1 proTGFβ1; SR-AB42-HuFab average of five, SR-AB63-HuFab average of four replicate experiments
Procedure: A Biacore 8K system was employed to determine the monovalent binding affinity and the kinetic parameters for antigen binding of test antibodies. Association and dissociation kinetics of Fab fragments SR-AB42-HuFab, SR-AB63-HuFab and SR-AB43-HuFab to antigen complexes were measured, and resulting ka, kd and KD are provided below. Briefly, the binding kinetics were evaluated by surface plasmon resonance using Biacore 8K (GE Healthcare). Biotinylated capture antigens were immobilized to the chip (10 nM, ˜200 RU loading). A Biotin CAPture sensor chip was used to capture the biotinylated antigens. Fabs at 10, 5, 2.5, 1.25, and 0.6 nM concentrations were injected over the captured antigens. 0 nM was used as a reference. Affinities of LTBP antibodies to GARP and LRRC33 were confirmed using higher concentration of Fabs (100, 50, 25, 12.5, 6.25 nM). 0 nM was used as a reference. Multi-cycle kinetics was employed where each analyte concentration was injected in a separate cycle and the sensor chip surface was regenerated after each cycle. All the assays were carried out in freshly prepared 1×HBS-EP+buffer (10 mM HEPES, 150 mM NaCl, 3 mM EDTA, 0.05% Tween20, pH 7.4). Data were fit globally to a 1:1 binding model to obtain the kinetic parameters. The sensorgram for 0 nM analyte concentration was used as reference.
• 96 well plates—Greinerbio-one REF 650101 • Microplate Foils—GE Healthcare—CAT #28-9758-16 • Biotin CAPture Kit GE Healthcare product number 28920233 • Biacore running buffer—supplied as a 20× solution, diluted in Milli-Q water, TEKnova CAT #H8022 Method:
These experiments were performed using the Biacore 8K using the method “multi-cycle kinetics/affinity using Biotin CAPture kit.”
Data collection rate was set to 10 Hz and the Biotin CAPture step was performed for 300 seconds with a flow rate of 2 μL/minute. The Biotin CAPture reagent was used after a 1:5 dilution in 1× Biacore running buffer. Biotinylated ligands (the various complexes of TGFβ1) were utilized at a concentration of 10 nM and were immobilized to the sensor chip for 180 seconds with a flow rate of 10 μL/minute. The analytes, which are each of the Fabs, were tested at 10, 5, 2.5, 1.25, and 0.625 nM with a 0 nM control included. Analyte contact time was 120 seconds and the dissociation time was 900 seconds. The regeneration cycle utilized was 120 seconds with a flow rate of 10 μL/minute.
The evaluation method used was “multi-cycle affinity using capture” and a 1:1 binding model was used. […] Global fits were utilized for every KD determination.

Sequence of huLTBP1 proTGFβ1 (P01137 30-390): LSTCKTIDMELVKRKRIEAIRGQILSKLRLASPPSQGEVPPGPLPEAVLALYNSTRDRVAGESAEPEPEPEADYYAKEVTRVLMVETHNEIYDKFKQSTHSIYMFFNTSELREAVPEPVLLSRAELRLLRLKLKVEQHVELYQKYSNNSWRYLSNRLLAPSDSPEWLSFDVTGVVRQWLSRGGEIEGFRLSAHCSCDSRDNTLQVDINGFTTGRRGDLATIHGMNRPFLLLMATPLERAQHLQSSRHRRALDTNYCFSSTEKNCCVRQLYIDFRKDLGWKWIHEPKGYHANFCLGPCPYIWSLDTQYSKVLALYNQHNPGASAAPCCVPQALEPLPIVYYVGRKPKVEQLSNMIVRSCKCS
Sequence of huLTBP1 proTGFβ1 (Q14766 347-1721 limits assumed): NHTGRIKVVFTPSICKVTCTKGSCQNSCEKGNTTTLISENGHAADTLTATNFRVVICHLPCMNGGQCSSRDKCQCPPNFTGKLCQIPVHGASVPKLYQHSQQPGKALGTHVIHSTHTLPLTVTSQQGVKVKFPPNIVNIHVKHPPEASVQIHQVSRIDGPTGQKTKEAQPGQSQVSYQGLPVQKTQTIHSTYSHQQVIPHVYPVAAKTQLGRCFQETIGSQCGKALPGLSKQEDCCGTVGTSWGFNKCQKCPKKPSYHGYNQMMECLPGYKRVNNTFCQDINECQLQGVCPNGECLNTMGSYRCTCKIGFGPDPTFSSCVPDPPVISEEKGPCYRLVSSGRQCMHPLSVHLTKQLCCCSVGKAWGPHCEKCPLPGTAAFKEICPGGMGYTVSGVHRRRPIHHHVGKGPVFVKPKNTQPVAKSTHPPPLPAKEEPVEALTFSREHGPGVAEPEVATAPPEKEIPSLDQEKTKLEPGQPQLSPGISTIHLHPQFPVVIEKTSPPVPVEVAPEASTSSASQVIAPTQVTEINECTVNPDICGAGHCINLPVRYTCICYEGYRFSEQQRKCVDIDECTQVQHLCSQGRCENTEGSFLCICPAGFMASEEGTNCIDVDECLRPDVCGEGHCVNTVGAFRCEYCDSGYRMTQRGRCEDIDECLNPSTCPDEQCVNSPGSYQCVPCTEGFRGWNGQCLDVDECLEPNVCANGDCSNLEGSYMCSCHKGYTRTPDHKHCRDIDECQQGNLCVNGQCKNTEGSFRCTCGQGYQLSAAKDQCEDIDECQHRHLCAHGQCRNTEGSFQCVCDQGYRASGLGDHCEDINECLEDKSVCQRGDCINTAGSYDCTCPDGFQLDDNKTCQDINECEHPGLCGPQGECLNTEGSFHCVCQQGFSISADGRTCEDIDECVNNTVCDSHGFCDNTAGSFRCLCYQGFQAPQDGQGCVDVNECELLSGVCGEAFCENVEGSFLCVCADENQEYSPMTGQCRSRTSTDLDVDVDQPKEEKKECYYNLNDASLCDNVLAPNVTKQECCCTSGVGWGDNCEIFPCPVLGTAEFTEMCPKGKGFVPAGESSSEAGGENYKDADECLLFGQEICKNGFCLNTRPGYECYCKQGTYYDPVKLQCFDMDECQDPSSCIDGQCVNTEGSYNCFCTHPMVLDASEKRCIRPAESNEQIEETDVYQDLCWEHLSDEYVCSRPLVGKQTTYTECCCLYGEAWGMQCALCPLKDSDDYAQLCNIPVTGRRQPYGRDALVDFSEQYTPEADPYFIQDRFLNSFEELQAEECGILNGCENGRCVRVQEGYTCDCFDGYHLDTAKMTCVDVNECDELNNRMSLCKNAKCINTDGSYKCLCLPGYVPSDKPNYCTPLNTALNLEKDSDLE

| ka | kd | Molecule |
| --- | --- | --- |
| 1.76e+06 M⁻¹ s⁻¹ | 0.000104 s⁻¹ | B1 |
| 1.84e+06 M⁻¹ s⁻¹ | 0.000136 s⁻¹ | B2 |
| 2.55e+06 M⁻¹ s⁻¹ | 0.00015 s⁻¹ | B3 |
| 2.58e+06 M⁻¹ s⁻¹ | 0.000126 s⁻¹ | B4 |
| 862000 M⁻¹ s⁻¹ | 0.000113 s⁻¹ | B5 |
| 1.17e+06 M⁻¹ s⁻¹ | 0.000155 s⁻¹ | B6 |
| 3.11e+06 M⁻¹ s⁻¹ | 0.000162 s⁻¹ | B7 |
| 1.35e+06 M⁻¹ s⁻¹ | 0.000181 s⁻¹ | B8 |
| 2.35e+06 M⁻¹ s⁻¹ | 0.00012 s⁻¹ | B9 |
| 2.5e+06 M⁻¹ s⁻¹ | 9.91e-05 s⁻¹ | B10 |
| 1.82e+06 M⁻¹ s⁻¹ | 0.000128 s⁻¹ | B11 |
| 2.47e+06 M⁻¹ s⁻¹ | 0.00011 s⁻¹ | B12 |
| 2.55e+06 M⁻¹ s⁻¹ | 0.00013 s⁻¹ | B13 |
| 1.8e+06 M⁻¹ s⁻¹ | 8.83e-05 s⁻¹ | B14 |
| 3.31e+06 M⁻¹ s⁻¹ | 0.000182 s⁻¹ | B15 |
| 809000 M⁻¹ s⁻¹ | 0.000138 s⁻¹ | B16 |

same assay, conditions: Table 27, Hu LTBP1-ProTGFβ1

| Kd | Molecule |
| --- | --- |
| 0.38 nM | B17 |
